Test [1] deals with T1, CXCR4 mutation library clone 914 (N192K) (human, UniProt P61073 1-352). In words: immunofluorescence, high stringency, average for residue N192 (one clone).
Test [2] has as its target all CXCR4 library clones containing a mutation at E277. Kind of test: immunofluorescence, high stringency, average over all clones with a mutation at E277.
The target of test [3] is T2, CXCR4 mutation library clone 709 (P163L, S178I) (human, UniProt P61073 1-352).
T2 chain: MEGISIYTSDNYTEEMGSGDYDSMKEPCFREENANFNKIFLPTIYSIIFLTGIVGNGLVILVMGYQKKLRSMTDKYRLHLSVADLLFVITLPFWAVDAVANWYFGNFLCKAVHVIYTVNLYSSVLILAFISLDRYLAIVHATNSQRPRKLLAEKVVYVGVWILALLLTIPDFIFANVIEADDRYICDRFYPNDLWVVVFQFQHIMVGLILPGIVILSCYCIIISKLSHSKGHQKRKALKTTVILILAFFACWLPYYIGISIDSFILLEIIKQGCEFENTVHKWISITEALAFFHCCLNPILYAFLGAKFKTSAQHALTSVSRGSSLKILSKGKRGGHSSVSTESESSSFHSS
Kind of test: immunofluorescence on HEK-293T expressing the clone, normalised to wild type.

Test [4] concerns the target CXCR4 mutation library clone 2396 (S178C) (human, UniProt P61073 1-352). The description is as above.
Test [5] concerns the target T1, CXCR4 mutation library clone 914 (N192K). The test is described as above.
Test [6] addresses T3, CXCR4 mutation library clone 414 (C218R, E179V, S351T) (human, UniProt P61073 1-352).
T3 chain: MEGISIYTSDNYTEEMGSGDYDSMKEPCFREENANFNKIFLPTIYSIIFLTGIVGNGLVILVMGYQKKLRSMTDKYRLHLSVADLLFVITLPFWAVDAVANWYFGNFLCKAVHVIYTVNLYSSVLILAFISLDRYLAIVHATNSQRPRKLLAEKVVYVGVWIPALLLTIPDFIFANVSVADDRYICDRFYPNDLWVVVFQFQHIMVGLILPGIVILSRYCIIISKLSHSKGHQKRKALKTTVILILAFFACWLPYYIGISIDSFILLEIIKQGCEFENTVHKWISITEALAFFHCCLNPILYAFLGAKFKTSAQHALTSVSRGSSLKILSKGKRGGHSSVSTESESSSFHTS
The description is as above.

Test [7] concerns the target T4, CXCR4 mutation library clone 1057 (K230E, S178R) (human, UniProt P61073 1-352).
T4 chain: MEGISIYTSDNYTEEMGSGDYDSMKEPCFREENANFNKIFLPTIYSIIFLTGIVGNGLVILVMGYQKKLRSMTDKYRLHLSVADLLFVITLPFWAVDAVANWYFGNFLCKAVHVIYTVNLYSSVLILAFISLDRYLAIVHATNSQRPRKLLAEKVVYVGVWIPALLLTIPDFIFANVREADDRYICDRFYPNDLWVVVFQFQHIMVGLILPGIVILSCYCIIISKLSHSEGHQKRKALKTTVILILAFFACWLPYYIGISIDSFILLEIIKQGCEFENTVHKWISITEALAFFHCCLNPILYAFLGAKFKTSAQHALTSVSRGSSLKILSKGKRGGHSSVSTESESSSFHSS
Described as above.

For test [8], the target named is T5, CXCR4 mutation library clone 2834 (E179V, G258E) (human, UniProt P61073 1-352).
T5 chain: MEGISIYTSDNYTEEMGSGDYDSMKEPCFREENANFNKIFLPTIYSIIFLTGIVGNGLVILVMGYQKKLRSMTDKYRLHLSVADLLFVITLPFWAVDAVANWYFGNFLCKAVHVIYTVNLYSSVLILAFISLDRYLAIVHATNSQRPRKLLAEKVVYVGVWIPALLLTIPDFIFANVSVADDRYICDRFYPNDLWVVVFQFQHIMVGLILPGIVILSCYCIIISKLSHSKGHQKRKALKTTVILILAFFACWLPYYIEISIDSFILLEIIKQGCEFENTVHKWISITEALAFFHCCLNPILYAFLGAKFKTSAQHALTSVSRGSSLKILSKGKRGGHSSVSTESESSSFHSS
The description is as above.

In test [9] the target is all CXCR4 library clones containing a mutation at F189. Kind of test: immunofluorescence, average over all clones with a mutation at F189.

B1: Nanobody 238D2 (VHH)
VHH: EVQLVESGGGLVQTGGSLRLSCAASGFTFSSYAMSWVRQAPGKGLEWVSGIKSSGDSTRYAGSVKGRFTISRDNAKNMLYLQMYSLKPEDTAVYYCAKSRVSRTGLYTYDNRGQGTQVTVSS
Turning to B1, the average nanobody reactivity in [1] was 8.3%; in test [2] it was 27.5%; in [9], -0.9%. Further, the “% immunofluorescence” value in test [3] amounted to 64.1%; in [4] it was 44.9%; in test [5], 8.3%; in test [6] it was 71.1%; in test [7], 54.6%; in [8], 84.6%.
